Results: patent publication US8673313B2, “Cell penetrating peptides and its use fused to biomolecules with therapeutic action” (priority 2007, dated 2014)

Experiments:
[1] = system: TC-1 tumor cell line expressing the HPV16 E7 protein; experiment: Treatment of established TC-1 tumors in mice, fusion versus mix (Example 9); format: in vivo, Mice C57BL/6; conditions: two immunizations every 14 days from day 10, volume at the 30 days, p<0.01 vs LALF+E7, LALF, E7 and PBS, FIG. 8
Experimental: To study whether the antitumor effect of LALF-E7 was associated with the covalent bond of both molecules, we carried out experiments in which mice were treated for LALF and E7, which were mixed at the time prior to their use at equal molarity that would allow a comparison with mice that received the fusion protein LALF-E7.
In this realization, Mice C57BL/6 was inoculated with 2×10^5 cells by subcutaneous injection in right leg in volumes of 0.2 mL. To the 10 days, when all the animals had developed palpable tumors, the animals were assigned arbitrarily to five groups of treatments. Each group included 10 animals.
Two immunizations, every 14 days were made. The group 1 was immunized with the recombinant protein LALF-E7; group 2 with the mix LALF+E7: recombinant protein E7; group 3 with synthetic peptide LALF; group 4 with recombinant protein E7 and group 5 with PBS. The tumor kinetic in the different groups was followed as previously described in the example 8. The volume average of each group +/− the standard deviation at the 30 days is represented in the FIG. 8.

J774 cells = experiment: Fluorescence microscopy: internalization of the cargo protein E7 to the cell; format: cell-based; conditions: 1.66 μM protein, J774, 37° C., 30 min, 1 hour and 2 hours, FIG. 4
Experimental: Cells J774 grown on sterile glass cover slips of 22 mm overnight at 37° C. and 5% of CO2 with RPMI 1640, 10% inactivated calf fetal serum and 2 mM de glutamine. Then, different glass cover slips incubated with 1.66 μM fusion protein LALF-E7, 1.66 μM of protein E7 and PBS (as negative control) a 37° C. per 30 min, 1 hour and 2 hours. CasKi cells (human cells expressing HPV 16) grown as positive control in the same experimental conditions.
After incubation the cells were washed briefly with PBS and fix cells by 4% paraformaldehide per 20 min at room temperature. Wash in three changes of PBS. The permeabilization of the cells was with 0.5% Tritón X-100 for 15 min a room temperature. Wash in three changes of PBS. Then, the cells were incubating for 1 hour in 1% blocking SFB in PBS at room temperature. Wash in three changes of PBS. Cells were incubated with goat IgG anti E7/HPV 16 polyclonal antibody (Santa Cruz) diluted in PBS 1:50. Wash extensively with PBS. Incubate with anti-goat-fluorescein IgG polyclonal antibody (Santa Cruz) diluted in PBS 1:50 for 45 minutes in a dark chamber. Wash extensively with PBS. Mount cover slip with aqueous mounting medium. Examine using a fluorescence microscope with appropriate filters.

[2] = system: cellular immune response against the antigen E7 de HPV-16; experiment: ELISPOT anti-IFN-γ of splenocytes of immunized mice; format: in vivo, mice C57BL/6; conditions: 30 μg s.c., 2 doses every 14 days, without adjuvant
Experimental: In order to evaluate the cellular immune response against the antigen E7 de HPV-16, 4 groups of 3 mice females C57BL/6, from 6 to 8 weeks of born, received 2 doses of immunogens. The group 1 was immunized with the 30 μg of the recombinant protein LALF-E7; group 2 with the 30 μg of the recombinant protein E7; group 3 with 8 μg of synthetic peptide LALF and group 4 with PBS. The immunizations were made of subcutaneous way in the flank of the animal with volumes of 0.2 mL and without adjuvant. Every 14 days were administered two doses. Seven days after the second immunization, the mice were sacrificed by break-up of the cervical and the splenocytes were removed aseptically for their later analysis in a test of ELISPOT anti-gamma interferon (anti-IFN-γ). The cellular suspensions of the animals by each group met in pool and they were homogenized smoothly. […]
The test for the determination of the IFN-γ secretion was made as described previously (Vazquez-Blomquist D. et al. (2002) Induction of a strong HIV-specific CD8+ T cell response in mice using a fowlpox virus vector expressing an HIV-1 multi-CTL-epitope polypeptide. Viral Immunol. 5(2):337-356). […] After this time, the surviving cells counted and were used for determinations of ELISPOT under the same conditions.
The results were expressed as a number of spot forming cells (SFC) per 10^6 splenocytes. […]

B1: LALF-E7: recombinant fusion of CPP LALF to E7 protein of HPV 16, cysteine per glycine in Rb site (SEQ ID N0. 9 y 10) (protein)
chain: MAEFHYRIKPTFRRLKWKYKGKFWKASHGDTPTLHEYMLDLQPETTDLYGYEQLNDSSEEEDEIDGPAGQAEPDRAHYNIVTFCCKCDSTLRLCVQSTHVDIRTLEDLLMGTLGIVCPICSQKPGSRAHHHHHH
modifications: Artificial Sequence Description Protein fusion CPP LALF-E7
effect on volume of established tumors [1]: effects in reducing the volume of tumors
internalization of E7 (fluorescent cells, anti-E7 antibody) (J774 cells): fluorescent cells
T CD8+ lymphocyte response [2]: effective response of T CD8^+ lymphocytes
number of SFC (IFN-γ secretor cells) relative to the groups immunized with VSSP and PBS ([2]; splenocytes 7 days after second immunization, FIG. 9): ~8 times
